According to publication PMC10959120:

Legend:
[1] = molecular target: MADD (DENN/MADD, RAB3-GEP) (UniProt Q8WXG6); assay: GFP-Trap co-IP, HA immunoblot; settings: reference: wild type; sites T86
[2] = molecular target: RAB-GDI1 (UniProt P31150); assay: GFP-Trap co-IP, immunoblot; settings: reference: wild type; sites T86

RAB3A (from UniProt P20336) T86A
binding against the reference [1]: stronger | binding against the reference [2]: stronger
